Experimental data taken from patent US20200317768A1 (published 2020).

T1: cynomolgus monkey FcγRIIa1 extracellular domain with C-terminal His-tag (cynomolgus monkey)
T1 construct: also called cyno FcgRIIa1; cynoFcγRIIa1
T1 chain: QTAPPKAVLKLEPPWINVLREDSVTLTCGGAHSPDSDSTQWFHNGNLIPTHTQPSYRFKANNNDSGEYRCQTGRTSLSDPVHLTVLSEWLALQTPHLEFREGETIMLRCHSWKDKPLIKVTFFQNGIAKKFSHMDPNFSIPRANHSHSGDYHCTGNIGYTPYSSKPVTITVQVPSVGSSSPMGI

T2: cynomolgus monkey FcγRIIa3 extracellular domain with C-terminal His-tag (cynomolgus monkey)
T2 construct: also called cyno FcgRIIa3; cynoFcγRIIa3
T2 chain: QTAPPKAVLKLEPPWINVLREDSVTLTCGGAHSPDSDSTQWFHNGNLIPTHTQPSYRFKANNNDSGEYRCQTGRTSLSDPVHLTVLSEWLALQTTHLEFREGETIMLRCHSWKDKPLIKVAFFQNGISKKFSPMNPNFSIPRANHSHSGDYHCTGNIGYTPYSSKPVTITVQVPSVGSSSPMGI

T3: cynomolgus monkey FcγRIIb extracellular domain with C-terminal His-tag (cynomolgus monkey)
T3 construct: also called cyno FcgRIIb; cynoFcγRIIb
T3 chain: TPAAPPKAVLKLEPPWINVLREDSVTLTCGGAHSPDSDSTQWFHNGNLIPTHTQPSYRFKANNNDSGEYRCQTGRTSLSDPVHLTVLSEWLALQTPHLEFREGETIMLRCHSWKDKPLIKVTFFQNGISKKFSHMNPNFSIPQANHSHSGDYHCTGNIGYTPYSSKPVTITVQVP

T4: cynomolgus monkey FcγRIIIaS extracellular domain with C-terminal His-tag (cynomolgus monkey, UniProt Q8SPW2 21-206 at identity 1.00))
T4 construct: also called cyno FcgRIIIaS; cynoFcγRIIIaS
T4 chain: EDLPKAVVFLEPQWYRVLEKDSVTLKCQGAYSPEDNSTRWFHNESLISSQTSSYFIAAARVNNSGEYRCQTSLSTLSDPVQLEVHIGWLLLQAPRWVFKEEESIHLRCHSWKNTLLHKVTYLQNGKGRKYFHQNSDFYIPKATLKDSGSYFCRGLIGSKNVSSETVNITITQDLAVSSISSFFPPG

T5: human FcγRIIaH extracellular domain with C-terminal His-tag (human, UniProt P12318 34-217)
T5 construct: also called human FcgRIIaH; FcγRIIa (type H)
T5 sequence: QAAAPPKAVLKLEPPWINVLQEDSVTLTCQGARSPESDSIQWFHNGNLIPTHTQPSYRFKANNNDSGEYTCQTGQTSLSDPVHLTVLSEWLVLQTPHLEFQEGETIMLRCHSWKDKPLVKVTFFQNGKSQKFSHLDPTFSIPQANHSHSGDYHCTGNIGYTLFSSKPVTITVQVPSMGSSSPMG

T6: human FcγRIIaR extracellular domain with C-terminal His-tag (human, UniProt P12318 34-217)
T6 construct: also called human FcgRIIaR; FcγRIIa (type R)
T6 chain: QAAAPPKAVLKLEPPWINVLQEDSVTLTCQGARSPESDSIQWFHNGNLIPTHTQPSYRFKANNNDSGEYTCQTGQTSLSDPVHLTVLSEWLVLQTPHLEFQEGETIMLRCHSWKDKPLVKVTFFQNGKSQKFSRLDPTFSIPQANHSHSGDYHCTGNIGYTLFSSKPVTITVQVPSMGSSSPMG

T7: human FcγRIIb extracellular domain with C-terminal His-tag (human, UniProt P31994 43-217)
T7 construct: also called human FcgRIIb
T7 sequence: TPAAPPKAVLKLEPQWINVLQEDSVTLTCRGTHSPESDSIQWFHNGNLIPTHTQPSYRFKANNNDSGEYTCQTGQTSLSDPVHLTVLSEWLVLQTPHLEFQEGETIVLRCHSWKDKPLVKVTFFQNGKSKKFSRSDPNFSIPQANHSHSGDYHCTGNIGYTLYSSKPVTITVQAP


Tests used:
Assay in all cases: SPR (BIACORE); KD of SG1 / KD of variant;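 note: relative to parent M103205H795-SG1 carrying the SG1 human heavy chain constant region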
[1] = target: T1, cynomolgus monkey FcγRIIa1 …
[2] = target: T2, cynomolgus monkey FcγRIIa3 …
[3] = target: T3, cynomolgus monkey FcγRIIb extracellular …
[4] = target: T4, cynomolgus monkey FcγRIIIaS …
[5] = target: T5, human FcγRIIaH extracellular domain …
[6] = target: T6, human FcγRIIaR extracellular domain …
[7] = target: T7, human FcγRIIb extracellular domain with …
[8] = target: T8, human FcγRIIIaV extracellular domain with C-terminal His-tag (human, UniProt P08637 17-208)
T8 construct: also called human FcgRIIIaV
T8 sequence (P08637 17-208 F176V): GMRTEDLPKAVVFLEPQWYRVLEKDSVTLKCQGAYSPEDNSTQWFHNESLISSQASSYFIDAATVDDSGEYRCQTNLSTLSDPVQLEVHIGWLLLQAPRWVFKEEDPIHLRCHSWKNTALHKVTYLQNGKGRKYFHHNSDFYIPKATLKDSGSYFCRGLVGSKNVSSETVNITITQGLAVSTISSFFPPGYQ

| Binder | KD fold (SG1 = 1) [1] | KD fold (SG1 = 1) [2] | KD fold (SG1 = 1) [3] | KD fold (SG1 = 1) [4] | KD fold (SG1 = 1) [5] | KD fold (SG1 = 1) [6] | KD fold (SG1 = 1) [7] | KD fold (SG1 = 1) [8] |
| --- | --- | --- | --- | --- | --- | --- | --- | --- |
| M103205H795-MY522/M103202L889-SK1 (antibody, human IgG1, kappa, Substitutions introduced into M103205H795-SG1, expressed with M103202L889-SK1 as light chain; EU numbering) heavy: QVTLKESGPVLVKPTETLTLTCTVSGIDLSHDDISWVRQAPGKGLEWVGIISYAGSTYYASWAKGRLTISKDTSKNQVVLTMTNMDPVDTATYYCARGVPAYSHGGDLWGQGTLVTVSSASTKGPSVFPLAPSSKSTSGGTAALGCLVKDYFPEPVTVSWNSGALTSGVHTFPAVLQSSGLYSLSSVVTVPSSSLGTQTYICNVNHKPSNTKVDKKVEPKSCDKTHTCPPCPGPELLTGPVVFLFPPKPKDTLMISRTPEVTCVVVDVSDEDPEVKFNWYVDGVEVHNAKTKPREEQYNSTYRVVSVLTVLHQDWLNGKEYKCKVSNKALPKPIEKTISKAKGQPREPQVYTLPPSREEMTKNQVSLTCLVKGFYPSDIAVEWESNGQPENNYKTTPPVLDSDGSFFLYSKLTVDKSRWQQGNVFSCSVMHEALHNHYTQKSLSLSP light: DIVMTQSPATLSLSPGERATLSCTSSQSVYHANWLSWFQQKPGQPPKLLIYWASTLAYGVPSRFSGSGSGTDFTLTISSLQPEDAATYYCAGGYGGGRYAFGQGTKVEIKRTVAAPSVFIFPPSDEQLKSGTASVVCLLNNFYPREAKVQWKVDNALQSGNSQESVTEQDSKDSTYSLSSTLTLSKADYEKHKVYACEVTHQGLSSPVTKSFNRGEC | 1.9 fold | 18.3 fold | 3.4 fold | 0.19 fold | 2.9 fold | 6.5 fold | 4.2 fold | 0.14 fold |
| M103205H795-MY524/M103202L889-SK1 (antibody, human IgG1, kappa, Substitutions introduced into M103205H795-SG1, expressed with M103202L889-SK1 as light chain; EU numbering) heavy: QVTLKESGPVLVKPTETLTLTCTVSGIDLSHDDISWVRQAPGKGLEWVGIISYAGSTYYASWAKGRLTISKDTSKNQVVLTMTNMDPVDTATYYCARGVPAYSHGGDLWGQGTLVTVSSASTKGPSVFPLAPSSKSTSGGTAALGCLVKDYFPEPVTVSWNSGALTSGVHTFPAVLQSSGLYSLSSVVTVPSSSLGTQTYICNVNHKPSNTKVDKKVEPKSCDKTHTCPPCPGPELLTGPSVFLFPPKPKDTLMISRTPEVTCVVVDVSDEDPEVKFNWYVDGVEVHNAKTKPREELYNSTYRVVSVLTVLHQDWLNGKEYKCKVSNKALPKPIEKTISKAKGQPREPQVYTLPPSREEMTKNQVSLTCLVKGFYPSDIAVEWESNGQPENNYKTTPPVLDSDGSFFLYSKLTVDKSRWQQGNVFSCSVMHEALHNHYTQKSLSLSP light: DIVMTQSPATLSLSPGERATLSCTSSQSVYHANWLSWFQQKPGQPPKLLIYWASTLAYGVPSRFSGSGSGTDFTLTISSLQPEDAATYYCAGGYGGGRYAFGQGTKVEIKRTVAAPSVFIFPPSDEQLKSGTASVVCLLNNFYPREAKVQWKVDNALQSGNSQESVTEQDSKDSTYSLSSTLTLSKADYEKHKVYACEVTHQGLSSPVTKSFNRGEC | 3.2 fold | 6.3 fold | 5.8 fold | 0.18 fold | 6.3 fold | 3.9 fold | 4.5 fold | 0.18 fold |
| M103205H795-MY523/M103202L889-SK1 (antibody, human IgG1, kappa, Substitutions introduced into M103205H795-SG1, expressed with M103202L889-SK1 as light chain; EU numbering) heavy: QVTLKESGPVLVKPTETLTLTCTVSGIDLSHDDISWVRQAPGKGLEWVGIISYAGSTYYASWAKGRLTISKDTSKNQVVLTMTNMDPVDTATYYCARGVPAYSHGGDLWGQGTLVTVSSASTKGPSVFPLAPSSKSTSGGTAALGCLVKDYFPEPVTVSWNSGALTSGVHTFPAVLQSSGLYSLSSVVTVPSSSLGTQTYICNVNHKPSNTKVDKKVEPKSCDKTHTCPPCPGPELLTGPVVFLFPPKPKDTLMISRTPEVTCVVVDVSDEDPEVKFNWYVDGVEVHNAKTKPREELYNSTYRVVSVLTVLHQDWLNGKEYKCKVSNKALPKPIEKTISKAKGQPREPQVYTLPPSREEMTKNQVSLTCLVKGFYPSDIAVEWESNGQPENNYKTTPPVLDSDGSFFLYSKLTVDKSRWQQGNVFSCSVMHEALHNHYTQKSLSLSP light: DIVMTQSPATLSLSPGERATLSCTSSQSVYHANWLSWFQQKPGQPPKLLIYWASTLAYGVPSRFSGSGSGTDFTLTISSLQPEDAATYYCAGGYGGGRYAFGQGTKVEIKRTVAAPSVFIFPPSDEQLKSGTASVVCLLNNFYPREAKVQWKVDNALQSGNSQESVTEQDSKDSTYSLSSTLTLSKADYEKHKVYACEVTHQGLSSPVTKSFNRGEC | 2.3 fold | 15.5 fold | 3.8 fold | 0.17 fold | 3.6 fold | 3.7 fold | 4.2 fold | 0.15 fold |
